Assay: label from the status in PepcDB records

Sequence | protein production
MKILPFIARGTSYYLKMSVKKLVPFLVVGLMLAAGDSVYAYSRGNGSIARGDDYPAYYKNGSQEIDQWRMYSRQCTSFVAFRLSNVNGFEIPAAYGNANEWGHRARREGYRVDNTPTIGSITWSTAGTYGHVAWVSNVMGDQIEIEEYNYGYTESYNKRVIKANTMTGFIHFKDLDGGSVGNSQSSTSTGGTHYFKTKSAIKTEPLASGTVIDYYYPGEKVHYDQILEKDGYKWLSYTAYNGSYRYVQLEAVNKNPLGNSVLSSTGGTHYFKTKSAIKTEPLVSATVIDYYYPGEKVHYDQILEKDGYKWLSYTAYNGSRRYIQLEGVTSSQNYQNQSGNISSYGSHSSSTVGWKKINGSWYHFKSNGSKSTGWLKDGSSWYYLKLSGEMQTGWLKENGLWYYLGSSGAMKTGWYQVSGKWYYSYSSGALAVNTTVDGYRVNSDGERV | failed
MKILTVNVHAWLEENQMEKIDILARTIAEKQYDVIAMQEVNQLMNNKIIFDDIREENYAWVLLETLQKYTDTDYYLHWSNSHIGFGKYNEGVAVITRHKIKAEDEFYCTFAQSVRTISARRIVSITINYEGQDIEFYSCHMNLPNCETEDMGKNIQTILNRTQNSNLKILMGDFNTDAIGNVAAYENILSQGLFDTYVMAEKKDDGITVDKSIHGWDNDKAKKRLDYIFSNKELKVKESKVIFNNKNKEIVSDHFGIEVKIEF | not failed
MKIQLDINGTEIQKGVWVGSGAIIEPGAILNPPCVIGDNCRIESGAVIDSLSVIGNNNVIERDSSVKRSVIWDGNYIEYGSKIRGAILCSKTNLKRYVHIFENAIVGDNCLINERVVIKPNIKIWPQKTVEPFAIVDRNIIWGSKLEHHHHHH | failed
MKISFSEIIHNALKEDLGDKGDITTNSILINEKVNFAINTRENLVVCGIPILEEVFNMNKEHVKYEIHKKDGDITGKNSTLVSGEALAIYLLPIERVILNFIQHASGIASITRQFVDEVSGTKVKIRSTRKTTPGLRMLDKYSVCIGGGESYRDNLCDGVLIKDNHIASCGSITLAIQRLRKNLKNEYIAIECDNISQVEESLSNNVDMILLDNMSISEIKKAVDIVNGKSVLEVSGCVNIRNVRNIALTGVDYISIGCITNSFQNKDIGLDIEYNNNK | not failed
MKISIICPLYNAENYIMSLHNKILEQEKPEGTEVEVSYVLTRCKDKTEEMLKNMNLQYTLIEPKDFSHSKTREMMAFKSTGDIIVFISQDVMMKNNFWLKNLVQPIIDGECEASFSRQLCTNNTIEKYIREKNYPEESRVVSKKDINKYGLLTFFYSDASSAVKTSVYKELNGYDNKRLLINEDMYFAEKLIQAGYRIKYCSDSEVYHSHVFTLKSLYERYFDTGVFFRQNSQFLNYKGNKSGKDLAIHVLKRSLEDKNFKVTLNILPNFGARFIGSFLGKKYESLPRSFVMASSMSKKVYSQILEHHHHHH | not failed
MKISLRLAVSSILGAIAYLGLAIWGMGGFSAFFGHPQLTLIAIATLLMVVAALYSEVNLSSGEQEDQGNRWVLPVFGVIGLLSGFVPAYSDRIDFCTFGGEGLRWLGALLFILGGGLRLWPVFILGRRFSGLVAIQPNHRLVVDGLYRHLRNPSYLGLLVNALGWALAFRSGLGLLLAALTLVPLIARIHAEEALLLKHFGKEYEAYCARSWRLLPGLY | failed
MKITGTVVKLGIVSVVLLFFTVMIIVIFGQMRFDRTNGYTAEFSNVSGLRQGQFVRASGVEIGKVKALHLVDGGRRVRVEFNIDRSVPLYQSTTAQIRYSDLIGNRYVELKRGEGKGANDLLPPGGLIPLSRTSPALDLDALIGGFKPVFRALDPAKVNNIANALITVFQGQGGTINDTLDQTAQLTSQIAERDQAIGEVVKNLNIVLDTTVKHRKEFDETVNNLENLITGLRNHSDQLAGGLAHISNGAGTVADLLAENRTLVRKAVSYLDAIQQPVIDQRVELDDLLHKTPTALTALGRANGTYGDFQNFYLCDLQIKWNGFQAGGPVRTVKLFSQPTGRCTPQ | failed
MKIVSIKIKNYRVFEDIKITNIPSFCVIIGANGTGKSTLFDVFGFLRDALKNNIRQALQIRGGFKEVVTRGKESEDIEIELKFRMEILATERLVTYILIIGQEGKKPVIKREILRYKRGEYGSPFHFLDFHNGQGYAIRNEESFESDEELEREEQKLESADILAIKGLGQFQRFKAANAIRSLIENWHVSDFHISDARGSKAALYAEHLSPTGDNIPIVAQYIYQEHPEIFAEILQRMKQRVPGISNVEAKEIEGGSLILKFQDQAFEDSFVDLYVSDGTIKMFAYLILLFDPKPHPLLCVEEPENQLYPTLLRELAEEFASYAHRGGQVFVSTHSPDFLNAVPLDSIFWLIKIQGVTKVEKAADHEVLRNLIAAGDLPGYLWNQGWFEGVAPLEHHHHHH | failed
MKKAGILLLSLLMPFSTAFAEASKPLSVELLWQLKRIGSPVVSSTGEHIIAPVTEYDLKEDKGSTQLWRFDVEGKNNRAITAKGLKVSEPVFSPDGKTLAFISERNDDDAGQIYLLPMDGPGEAAKLTDIPTGVNGIKWVGKHLYFISNIFPEQNWEQMKAQLKTDKDNKVSARQWNALPYSQFDHWLDERRQAHVFRIPATGGTVEAVTQPLGHELPRSSQSSESYDISPDERLIAFSAYGSDNRVDPKLDLFLATIGGNKAENITPENPAPDLNPSFSPNGKTLAFTRQKIPGFYADTARLMLLDVSSRKLTTLTPDWDRSVSEFEWTPDSKGFYASIEDAATNRIYHIDAKSGKAKAITQATDFSQPAIAKDGQLIATNQSFLYPARLVSINPRNGKTERLEQFNDDILKDVDLGTYESVTYKGYQGQDIQMWVHYPPGFDRSKKYPLFMLIHGGPHNAISDGFHYRWNAQTFASWGYVTAWPNFHGSSGFGQDFADAINPDWKNKSLEDVLKATDWFKQQSWIDSDRMVAGGASYGGYLTSIILGQPHPFKALLIHAAVYDMYAQMSADFAVHSTRFGNYWDNPELYKAISPHYFAANFNTPTLVSHGQLDYRVPVGQGFELFRTLQTRNVESRMIYFPDENHWIVKPNNSIYWYNQVKDWMAHYAKPGAQ | failed
MKKEFSAGGVLFKDGEVLLIKTPSNVWSFPKGNIEPGEKPEETAVREVWEETGVKGEILDYIGEIHYWYTLKGERIFKTVKYYLMKYKEGEPRPSWEVKDAKFFPIKEAKKLLKYKGDKEIFEKALKLKEKFKL | not failed
MKKEKIHLEYLLNATSKNILWSAISTPTGLEDWFADKVVSDDKTVTFCWGKTEQRQAGIVAIRAYSFIRFHWLDDENERDYFEIKMSYNELTGDYVLEITDFSEADEADDLKELWDSQVSKLRRTCGFLEHHHHHH | not failed
MKKEYGYPTLKVICQASAGNETAIREILKFYDAYICKLCLRPFYHFESGKITMQVDEELKGQIHIEMMKAILKFEIRVK | failed
MKKGAFITQIVIYGLILLASSLIANLVNKIWPAFPMPTPLIGMILLYLLLTFKVVKLEQVAGVSNFFVQFISLIFIPSGIALVTKLDVLKAEGVQIVIVIIVSTLMLLLFTAGIAWVLIQVKEWFIARRTNSNVELEED | failed
MKKGTDLLKKGFAKMVKHGVVMDVTNVEQAQIAEEAGAVAVMALERVPADIRAAGGVARMSDPALIEEIMDAVSIPVMAKCRIGHTTEALVLEAIGVDMIDESEVLTQADPFFHIYKKKFNVPFVCGARNLGEAVRRIWEGAAMIRTKGEAGTGNIVEAVRHMRLMNEAIAQLQRMTDEEVYGVAKFYANRYAELAKTVREGMGLPATVLENEPIYEGFTLAEIIDGLYEVLLEVKKLGRLPVVNFAAGGVATPADAALMMQLGSDGVFVGSGIFKSENPLERARAIVEATYNYDKPDIVAEVSKNLGEAMKGIDITQISEAEKMQYRGD | not failed
MKKIAFFIFVILFSVGIYLIWHVLLEKALELKLATSANDLLLKLLAILGVFSMLVLFQGIISSYKKRQLKRILQKIDAMNGFEFEEYSKIFFTSKGFEVSITQKSGDYGADLIIEKDGIKWAVQVKRYSHKVSPKAIQEVVSSKAYYACEKACVITNSYFTQAAQKLAQANEVLLIDRDEWVRFLNEKR | failed
MKKIEIFDPAMCCSTGVCGPSVDPELIRISVAVNNLKNKGIDVTRYNLASEPDAFANNGVISQLLTDKGPDVLPVTLVDGKVVKEKSHLTNEELTQLTDITEEELSQKPVVRLKLNVKK | not failed
MKKIIAITGFAMLGGGLREGLSLLVTWPQHFWITCLINIVGAFVLSLITNLLPARLPVSEDIVIGMSVGFVGSFTTFSTFTFETLQSFQSGHSVLALSYVAASLGLGLLAGLAGNFLSTYWLPKEEF | failed
MKKIICYLSLSALSLSSFSQTQIANGDFENWSSSEYCSALDSLDNFLTGQAFFYLNAKNETDAIECPALPFTYKTTDKQSGSYALKLGPQYFDDKAYYNFVTLGEAAYFEEEGSVASFGIPFTGRPSKLTGYYKCTAGAVGDELQIKVFGSNFTSEDPLFYGVFTASENQPMYEKFEIDLVYDPTDPNNAVYLSMLITVGNLNDGSIDENTVAFIDNLVFEYDATAATSYTPVSPIHVFASNKTISFSEHVSDIHVVDMVGANNIQEAASTKTLHAETLNSGLYIVTYNYKGNYFSKKVVIE | failed
MKKILAICGIELSLIFKKPQNYLIMFAAPLLLTFVFGSMLSGNDDKVRLAIVDQDDTILSQHYIRQLKAHDDMYVFENMSESKASEKLKQKKIAGIIVISRSFQTQLEKGKHPELIFRHGPELSEAPMVKQYAESALATLNIQVTAAKTASQTAGENWKAAYKTVFAKKHEDIVPAVTRQTLSDKKEGAEASDTASRAAGFSILFVMLTMMGAAGTILEARKNGVWSRLLTASVSRAEIGAGYVLSFFVIGWIQFGILLLSTHWLFGINWGNPAAVIVLVSLFLLTVVGIGLMIAANVRTPEQQLAFGNLFVIATCMVSGMYWPIDIEPKFMQSIAEFLPQKWAMSGLTEIIANGARVTDILGICGILLAFAAITFAAGLKALRA | failed
MKKILLSLITAAVLLSCQSSRDTSHKYTAITPGVEWLDTNNEKINAHGGGILYHEGIYYWYGECKSDSTYWNPNVPGWECYRTEAGGVNCYSSKDLLNWKYEGLVLQPEISDTQSDLHPSKVLERPKVIYNDKTKKFVMWLHVDSDDYNKAAAGVAVSDSPTGVFTYLGSMHPNGQISRDMTLFKDDDGKAYHIYSSEQNSTLYISLLSDDYLKPSGTFTRNFAGKFREAPAVFKHNGLYYVISSGCTGWSPNEAEYAVATQILGPWTVKGNPCVGKDADKTFYGQSTHVLPIQGKKDAYIAMFDKWNKTDLIHSTYIWLPIQFREDGSMAIQWLDSWSPDTYEF | failed
MKKISIEERPDWRATAEREGFNFHTIDGERYWDERGYYLFTEQQITRDLEAPTQALHQMCMDAVARVVDSEELLHQLAIPPAFFDVIQTSWKQGHPHLYARFDFAYDGTGPAKMYEINADTPTSLMEAGAFQLLWLEEQMARGVLPAHASQFNSIAEDLVRAFAEFPGASPFYFAAMSGSVEDRVTTDFLRRMAAHVGIDARHIDIEDIGLNDQGRFVDLDGRWIERLFKLHAWEHIFHEAFGKNVTASGTQFVEPAWKAILSNKGILPLLWQFNEGHPNLLPSRVDQDVTKPVPKGWVRKPYFSREGANIEMRTPGDQVIAVDGPYTDAPYILQAYSPLPKFGDSYTLIGSWVIGDLASGIGIREDDSLITKDTSRFLPHVVID | failed
MKKKDRYTGHRYAKPNRSSENDIYSNSDRYARTTGNKKYKKRKKKWSAKKKIIVTLCIILGIILMIAGIVFAYIKATLSQLGRVPLPEAPETLGISSEVAEKYKDLDVTNIALFGVDSREDNDIGRSDALMILSIDRVHNKIKLTSIARDTYVTVDGYGQTKINHAYAYEGPELAIKTINENFDMNIQGFVTVNFSQLAEIIDYLGGINIAVTEEEREVANRLIQELGVQCEPITESGESVHLTGDQAVIFARNRDTGGDSERTGRQRKVLSAMFDQAKAIDVTQYPGLINMVLSQSVTSLSDNDMLGIGTWAVTSGATMEQMSLPNENCNSSGEIIDGVWYYVYDLDLATDLLHDFIYEENSAD | failed
